B1: “2+1 IgG Crossfab” (anti-MCSP/anti-huCD3); VH/VL exchange (LC007/V9) (bispecific antibody)
heavy 1: DIQMTQSPSSLSASVGDRVTITCRASQDIRNYLNWYQQKPGKAPKLLIYYTSRLESGVPSRFSGSGSGTDYTLTISSLQPEDFATYYCQQGNTLPWTFGQGTKVEIKSSASTKGPSVFPLAPSSKSTSGGTAALGCLVKDYFPEPVTVSWNSGALTSGVHTFPAVLQSSGLYSLSSVVTVPSSSLGTQTYICNVNHKPSNTKVDKKVEPKSCGGGGSGGGGSEVQLQESGPGLVKPSQSLSLTCSVTGYSITSGYYWNWIRQFPGNKLEWMGYITYDGSNNYNPSLKNRISITRDTSKNQFFLKLNSVTTEDTATYYCADFDYWGQGTTLTVSSASTKGPSVFPLAPSSKSTSGGTAALGCLVKDYFPEPVTVSWNSGALTSGVHTFPAVLQSSGLYSLSSVVTVPSSSLGTQTYICNVNHKPSNTKVDKKVEPKSCDKTHTCPPCPAPEAAGGPSVFLFPPKPKDTLMISRTPEVTCVVVDVSHEDPEVKFNWYVDGVEVHNAKTKPREEQYNSTYRVVSVLTVLHQDWLNGKEYKCKVSNKALGAPIEKTISKAKGQPREPQVCTLPPSRDELTKNQVSLSCAVKGFYPSDIAVEWESNGQPENNYKTTPPVLDSDGSFFLVSKLTVDKSRWQQGNVFSCSVMHEALHNHYTQKSLSLSPGK
heavy 2: not shown
light 1: DIVLTQSPSSLSASLGDRVTISCSASQGIRNYLNWYQQRPDGTVKLLIYYTSSLHSGVPSRFSGSGSGTDYSLTISNLEPEDIATYYCQQYSKLPWTFGGGTKLEIKRTVAAPSVFIFPPSDEQLKSGTASVVCLLNNFYPREAKVQWKVDNALQSGNSQESVTEQDSKDSTYSLSSTLTLSKADYEKHKVYACEVTHQGLSSPVTKSFNRGEC
light 2: EVQLVESGGGLVQPGGSLRLSCAASGYSFTGYTMNWVRQAPGKGLEWVALINPYKGVSTYNQKFKDRFTISVDKSKNTAYLQMNSLRAEDTAVYYCARSGYYGDSDWYFDVWGQGTLVTVSSASVAAPSVFIFPPSDEQLKSGTASVVCLLNNFYPREAKVQWKVDNALQSGNSQESVTEQDSKDSTYSLSSTLTLSKADYEKHKVYACEVTHQGLSSPVTKSFNRGEC
notes: also called 2+1 IgG Crossfab (V9)
B2: CD3/MCSP “2+1 IgG Crossfab, inverted”; CL/CH1 exchange (LC007/V9) (bispecific antibody)
heavy 1: not shown
heavy 2: EVQLQESGPGLVKPSQSLSLTCSVTGYSITSGYYWNWIRQFPGNKLEWMGYITYDGSNNYNPSLKNRISITRDTSKNQFFLKLNSVTTEDTATYYCADFDYWGQGTTLTVSSASTKGPSVFPLAPSSKSTSGGTAALGCLVKDYFPEPVTVSWNSGALTSGVHTFPAVLQSSGLYSLSSVVTVPSSSLGTQTYICNVNHKPSNTKVDKKVEPKSCDKTHTCPPCPAPEAAGGPSVFLFPPKPKDTLMISRTPEVTCVVVDVSHEDPEVKFNWYVDGVEVHNAKTKPREEQYNSTYRVVSVLTVLHQDWLNGKEYKCKVSNKALGAPIEKTISKAKGQPREPQVCTLPPSRDELTKNQVSLSCAVKGFYPSDIAVEWESNGQPENNYKTTPPVLDSDGSFFLVSKLTVDKSRWQQGNVFSCSVMHEALHNHYTQKSLSLSPGK
light 1: B1 light 1
light 2: DIQMTQSPSSLSASVGDRVTITCRASQDIRNYLNWYQQKPGKAPKLLIYYTSRLESGVPSRFSGSGSGTDYTLTISSLQPEDFATYYCQQGNTLPWTFGQGTKVEIKSSASTKGPSVFPLAPSSKSTSGGTAALGCLVKDYFPEPVTVSWNSGALTSGVHTFPAVLQSSGLYSLSSVVTVPSSSLGTQTYICNVNHKPSNTKVDKKVEPKSC
notes: also called 2+1 IgG Crossfab, inverted (V9)
B3: “2+1 IgG Crossfab”; CL/CH1 exchange (LC007/anti-CD3) (bispecific antibody)
heavy 1: not shown
heavy 2: B2 heavy 2
light 1: B1 light 1
light 2: QAVVTQESALTTSPGETVTLTCRSSTGAVTTSNYANWVQEKPDHLFTGLIGGTNKRAPGVPARFSGSLIGDKAALTITGAQTEDEAIYFCALWYSNLWVFGGGTKLTVLSSASTKGPSVFPLAPSSKSTSGGTAALGCLVKDYFPEPVTVSWNSGALTSGVHTFPAVLQSSGLYSLSSVVTVPSSSLGTQTYICNVNHKPSNTKVDKKVEPKSC
notes: also called 2+1 IgG Crossfab (anti-CD3)
B4: “2+1 IgG Crossfab, inverted”; CL/CH1 exchange (LC007/anti-CD3) (bispecific antibody)
heavy 1: not shown
heavy 2: B2 heavy 2
light 1: B1 light 1
light 2: B3 light 2
notes: also called 2+1 IgG Crossfab, inverted (anti-CD3)
B5: “1+1 IgG scFab, one armed” (anti-MCSP/anti-huCD3) (bispecific antibody)
heavy 1: not shown
heavy 2: not shown
light: B1 light 1
B6: “1+1 IgG scFab, one armed inverted” (anti-MCSP/anti-huCD3) (bispecific antibody)
heavy 1: DIVLTQSPSSLSASLGDRVTISCSASQGIRNYLNWYQQRPDGTVKLLIYYTSSLHSGVPSRFSGSGSGTDYSLTISNLEPEDIATYYCQQYSKLPWTFGGGTKLEIKRTVAAPSVFIFPPSDEQLKSGTASVVCLLNNFYPREAKVQWKVDNALQSGNSQESVTEQDSKDSTYSLSSTLTLSKADYEKHKVYACEVTHQGLSSPVTKSFNRGECSGGGSGGGSEGGGSEGGGSEGGGSEGGGSGGGSGEVQLQESGPGLVKPSQSLSLTCSVTGYSITSGYYWNWIRQFPGNKLEWMGYITYDGSNNYNPSLKNRISITRDTSKNQFFLKLNSVTTEDTATYYCADFDYWGQGTTLTVSSASTKGPSVFPLAPSSKSTSGGTAALGCLVKDYFPEPVTVSWNSGALTSGVHTFPAVLQSSGLYSLSSVVTVPSSSLGTQTYICNVNHKPSNTKVDKKVEPKSCDGGGGSGGGGSGAQDKTHTCPPCPAPEAAGGPSVFLFPPKPKDTLMISRTPEVTCVVVDVSHEDPEVKFNWYVDGVEVHNAKTKPREEQYNSTYRVVSVLTVLHQDWLNGKEYKCKVSNKALPAPIEKTISKAKGQPREPQVCTLPPSRDELTKNQVSLSCAVKGFYPSDIAVEWESNGQPENNYKTTPPVLDSDGSFFLVSKLTVDKSRWQQGNVFSCSVMHEALHNHYTQKSLSLSPGK
heavy 2: not shown
light: not shown

What was measured:
[1] = biological target: T1, human MCSP expressed on tumor cells (human, UniProt Q6UVK1 30-2322); test: cell-based or functional assay
T1 sequence (Q6UVK1 30-2322): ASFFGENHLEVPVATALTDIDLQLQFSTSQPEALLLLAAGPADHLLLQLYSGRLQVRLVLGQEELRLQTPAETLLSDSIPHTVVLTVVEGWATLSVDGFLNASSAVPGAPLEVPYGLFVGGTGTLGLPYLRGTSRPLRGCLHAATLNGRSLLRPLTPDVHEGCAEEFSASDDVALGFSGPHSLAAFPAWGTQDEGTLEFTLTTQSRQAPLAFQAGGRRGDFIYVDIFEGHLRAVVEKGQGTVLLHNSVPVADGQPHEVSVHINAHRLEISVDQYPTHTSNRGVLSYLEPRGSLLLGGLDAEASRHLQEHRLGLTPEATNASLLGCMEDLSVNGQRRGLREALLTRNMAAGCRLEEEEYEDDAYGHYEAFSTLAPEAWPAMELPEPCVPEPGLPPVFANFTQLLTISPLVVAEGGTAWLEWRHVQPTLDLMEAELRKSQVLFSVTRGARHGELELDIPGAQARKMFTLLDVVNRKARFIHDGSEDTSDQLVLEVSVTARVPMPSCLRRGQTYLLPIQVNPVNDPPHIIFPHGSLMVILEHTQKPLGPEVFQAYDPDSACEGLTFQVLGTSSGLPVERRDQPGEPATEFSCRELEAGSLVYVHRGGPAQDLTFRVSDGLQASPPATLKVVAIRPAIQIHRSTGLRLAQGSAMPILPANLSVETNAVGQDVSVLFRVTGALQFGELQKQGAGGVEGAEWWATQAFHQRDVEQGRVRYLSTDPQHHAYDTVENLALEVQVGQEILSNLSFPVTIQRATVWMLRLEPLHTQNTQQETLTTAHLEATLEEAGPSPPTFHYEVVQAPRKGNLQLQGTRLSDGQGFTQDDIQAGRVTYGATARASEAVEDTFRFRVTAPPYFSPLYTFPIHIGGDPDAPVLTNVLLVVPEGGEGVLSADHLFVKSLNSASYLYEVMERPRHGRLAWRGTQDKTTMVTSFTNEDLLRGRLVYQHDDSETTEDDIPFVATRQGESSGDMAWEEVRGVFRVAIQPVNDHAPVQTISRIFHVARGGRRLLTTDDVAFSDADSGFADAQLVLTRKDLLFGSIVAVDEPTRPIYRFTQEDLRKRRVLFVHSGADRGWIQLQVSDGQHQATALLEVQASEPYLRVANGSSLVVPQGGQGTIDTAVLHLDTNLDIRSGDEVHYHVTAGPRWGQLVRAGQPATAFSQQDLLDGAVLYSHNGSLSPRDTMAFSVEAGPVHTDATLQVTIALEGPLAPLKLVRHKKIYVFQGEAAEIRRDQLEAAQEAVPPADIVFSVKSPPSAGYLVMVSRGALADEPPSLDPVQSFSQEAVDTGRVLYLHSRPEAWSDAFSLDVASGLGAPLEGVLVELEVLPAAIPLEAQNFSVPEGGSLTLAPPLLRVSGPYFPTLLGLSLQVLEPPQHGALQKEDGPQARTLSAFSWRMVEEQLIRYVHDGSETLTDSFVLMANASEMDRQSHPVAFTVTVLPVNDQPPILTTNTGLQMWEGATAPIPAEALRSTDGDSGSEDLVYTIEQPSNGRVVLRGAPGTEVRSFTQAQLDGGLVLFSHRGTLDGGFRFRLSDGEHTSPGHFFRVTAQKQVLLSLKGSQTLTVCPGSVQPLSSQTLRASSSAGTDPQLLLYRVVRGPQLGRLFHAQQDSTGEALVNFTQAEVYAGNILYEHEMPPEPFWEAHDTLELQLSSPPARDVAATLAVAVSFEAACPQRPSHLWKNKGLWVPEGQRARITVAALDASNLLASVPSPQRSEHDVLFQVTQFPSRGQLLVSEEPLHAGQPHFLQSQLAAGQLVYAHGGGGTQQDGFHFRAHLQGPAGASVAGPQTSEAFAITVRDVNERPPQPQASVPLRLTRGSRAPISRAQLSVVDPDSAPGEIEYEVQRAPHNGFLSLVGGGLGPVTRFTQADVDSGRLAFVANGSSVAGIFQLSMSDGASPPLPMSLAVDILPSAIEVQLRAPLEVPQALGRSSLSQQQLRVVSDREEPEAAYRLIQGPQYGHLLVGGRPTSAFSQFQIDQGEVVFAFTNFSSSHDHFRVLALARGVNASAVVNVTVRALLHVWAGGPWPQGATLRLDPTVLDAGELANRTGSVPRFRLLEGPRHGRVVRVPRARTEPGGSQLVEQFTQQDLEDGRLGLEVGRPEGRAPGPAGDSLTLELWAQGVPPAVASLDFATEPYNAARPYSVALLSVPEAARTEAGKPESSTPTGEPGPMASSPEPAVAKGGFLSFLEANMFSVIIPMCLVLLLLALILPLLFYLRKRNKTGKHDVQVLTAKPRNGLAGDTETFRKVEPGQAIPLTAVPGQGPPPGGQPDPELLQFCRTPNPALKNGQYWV

[2] = biological target: T2, human CD3 expressed on Jurkat cells (human, UniProt P07766 23-207); test: flow cytometry on Jurkat cells
T2 construct: CD3 complex on Jurkat cells (ATCC TIB-152); also called huCD3
T2 sequence (P07766 23-207 limits assumed): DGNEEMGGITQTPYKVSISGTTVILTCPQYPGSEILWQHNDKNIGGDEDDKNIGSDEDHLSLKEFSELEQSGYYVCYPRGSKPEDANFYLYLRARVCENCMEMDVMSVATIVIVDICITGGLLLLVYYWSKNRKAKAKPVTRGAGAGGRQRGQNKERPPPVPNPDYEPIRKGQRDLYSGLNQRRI
Description: (§1) Binding of the different bispecific constructs to CD3 on Jurkat cells (ATCC #TIB-152), and the respective tumor antigen on target cells, was determined by FACS. Briefly, cells were harvested, counted and checked for viability. 0.15 - 0.2 million cells per well (in PBS containing 0.1% BSA; 90 µl) were plated in a round-bottom 96-well plate and incubated with the indicated concentration of the bispecific constructs and corresponding IgG controls (10 µl) for 30 min at 4° C. For a better comparison, all constructs and IgG controls were normalized to same molarity. After the incubation, cells were centrifuged (5 min, 350 × g), washed with 150 µl PBS containing 0.1% BSA, resuspended and incubated for further 30 min at 4° C. with 12 µl/well of a FITC-or PE-conjugated secondary antibody. Bound constructs were detected using a FACSCantoII (Software FACS Diva). The “(scFv)₂” molecule was detected using a FITC-conjugated anti-His antibody (Lucerna, #RHIS-45F-Z). For all other molecules, a FITC- or PE-conjugated AffiniPure F(ab′)2 Fragment goat anti-human IgG Fcγ Fragment Specific (Jackson Immuno Research Lab # 109-096-098 / working solution 1:20, or #109-116-170 / working solution 1:80, respectively) was used. Cells were washed by addition of 120 µl/well PBS containing 0.1% BSA and centrifugation at 350 × g for 5 min. A second washing step was performed with 150 µl/well PBS containing 0.1% BSA. Unless otherwise indicated, cells were fixed with 100 µl/well fixation buffer (BD #554655) for 15 min at 4° C. in the dark, centrifuged for 6 min at 400 × g and kept in 200 µl/well PBS containing 0.1% BSA until the samples were measured with FACS CantoII. EC50 values were calculated using the GraphPad Prism software.
As a control, the equivalent maximum concentration of the corresponding IgGs and the background staining due to the labeled 2ndary antibody (goat anti-human FITC-conjugated AffiniPure F(ab′)2 Fragment, Fcγ Fragment-specific, Jackson Immuno Research Lab # 109-096-098) were assessed as well.

[3] = biological target: T1, human MCSP expressed on tumor cells; test: flow cytometry on WM266-4 cells
Description: as §1
In a final experiment, binding of the “2+1 IgG Crossfab” (SEQ ID NOs 5, 23, 215, 217) and the “2+1 IgG Crossfab, inverted” (SEQ ID NOs 5, 23, 215, 219) constructs to human CD3, expressed by Jurkat cells, and to human MCSP, expressed by WM266-4 tumor cells was determined. As depicted in FIG. 58A and FIG. 58B the binding to human CD3 was reduced for the “2+1 IgG Crossfab, inverted” compared to the other construct, but the binding to human MCSP was comparably good.

[4] = biological target: T1, human MCSP expressed on tumor cells; test: cell-based or functional assay; remark: listed apart in the source
[5] = biological target: T2, human CD3 expressed on Jurkat cells; test: flow cytometry on Jurkat cells, 50 nM
Description: as §1
(§2) In a first experiment, different bispecific constructs targeting human MCSP and human CD3 were analyzed by flow cytometry for binding to human CD3 expressed on Jurkat, human T cell leukaemia cells, or to human MCSP on Colo-38 human melanoma cells.

[6] = biological target: T1, human MCSP expressed on tumor cells; test: flow cytometry on Colo-38 cells, 50 nM
Description: as §1, §2

Row | Binder | EC50 of killing (LDH release) of MV-3 cells, human PBMCs, E:T 10:1, 21 h [1] [pM] | EC50 of killing (LDH release) of WM266-4 cells, human PBMCs, E:T 10:1, 21 h [1] [pM] | EC50 [2] [nM] | EC50 [3] [nM] | EC50 [pM] of killing (LDH release) of MV-3 cells, human PBMCs, E:T 10:1, about 24 h [4] [pM] | EC50 [pM] of killing (LDH release) of WM266-4 cells, human PBMCs, E:T 10:1, about 24 h [4] [pM] | binding result [5] | binding result [6]
1 | B1 | 9.2 | 33.1 | 1.66 | 0.95 | 10 | 12.4 | – | –
2 | B2 | – | – | 6.1 | 0.57 | 4.1 | 3.7 | – | –
3 | B3 | – | – | 10.3 | 3.1 | 11 | 11.3 | – | –
4 | B4 | – | – | 32 | 3.4 | 3 | 7.1 | – | –
5 | B5 | – | – | – | – | – | – | binds | binds
6 | B6 | – | – | – | – | – | – | binds | binds

Reference: patent US20230340160A1 (published 2023)
